Results as given in US20240254259A1 (NATIONAL RESEARCH COUNCIL CANADA, published 2024).

T1: full length human DPEP-1 displayed on HEK293T / HEK293-6E cells (human, UniProt P16444 17-385)
T1 construct: whole, on cells; GPI-anchored on the cell surface; also called hDPEP-1
T1 sequence (looked up): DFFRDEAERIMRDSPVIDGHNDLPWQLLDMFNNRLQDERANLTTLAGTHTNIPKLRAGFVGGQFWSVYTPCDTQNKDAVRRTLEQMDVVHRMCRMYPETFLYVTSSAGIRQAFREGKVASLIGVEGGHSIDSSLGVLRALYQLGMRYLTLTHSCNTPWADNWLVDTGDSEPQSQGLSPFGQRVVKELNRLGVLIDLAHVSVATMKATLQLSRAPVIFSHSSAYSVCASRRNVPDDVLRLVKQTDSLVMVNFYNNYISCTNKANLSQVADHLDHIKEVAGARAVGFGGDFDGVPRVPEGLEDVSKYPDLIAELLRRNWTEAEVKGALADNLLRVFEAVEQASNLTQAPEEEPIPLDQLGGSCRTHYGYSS

T2: recombinant human DPEP-1 ectodomain (human, UniProt P16444 17-385, chemically biotinylated with NHS-LC-LC-Biotin in the SPR assay)
T2 construct: range 17-385; The limits 17-385 are given for the immunogen; also called hDPEP-1 ectodomain; hDPEP-1 ECD
T2 sequence (looked up): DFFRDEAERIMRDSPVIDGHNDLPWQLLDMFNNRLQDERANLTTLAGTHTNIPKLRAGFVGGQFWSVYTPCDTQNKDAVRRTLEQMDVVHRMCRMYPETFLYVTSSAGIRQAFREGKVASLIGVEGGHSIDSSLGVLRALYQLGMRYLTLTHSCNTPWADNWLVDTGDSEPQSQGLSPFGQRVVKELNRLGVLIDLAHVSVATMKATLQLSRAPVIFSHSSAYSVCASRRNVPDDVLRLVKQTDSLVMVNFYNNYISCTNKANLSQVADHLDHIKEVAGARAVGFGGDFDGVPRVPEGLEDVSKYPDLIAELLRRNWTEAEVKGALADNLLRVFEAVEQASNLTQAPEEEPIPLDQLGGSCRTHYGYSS


Legend:
[1] = target: full length human DPEP-1 displayed on HEK293T / HEK293-6E cells (human) (UniProt P16444); assay: flow cytometry, biotinylated negative control VHH at 100 nM on HEK-293T cells overexpressing human DPEP-1, streptavidin-PE; the same number stands in all seven panels
[2] = target: T1, full length human DPEP-1 displayed on …; assay: flow cytometry, biotinylated VHH titrated on HEK-293-6E cells overexpressing hDPEP-1
Description: (§1) VHH concentrations at 50% binding, EC₅₀ values, were calculated from graphs and recorded in Table 5.
(§2) Binding of biotinylated VHHs to hDPEP-1 was detected using streptavidin-phycoerythrin (SPE). The binding profile of the anti-DPEP-1 rabbit pAb (Proteintech, Cat #12222-1-AP) positive control is shown as inset. Binding of the rabbit pAb was detected using goat anti-rabbit IgG antibody conjugated to phycoerythrin (Thermo Fisher, Cat #P-2771MP). Graphs in FIG. 3B with similar maximal fluorescence plateau are grouped together and shown in FIG. 3C (A20.1 VHH is shown for comparison). Three independent experiments were performed and data were collected on a Beckman CytoFLEX Analyzer followed by analysis with FlowJo v10.6.2 (TreeStar). EC₅₀ values were calculated from FIG. 3C and recorded in Table 5. Based on the binding measured by flow cytometry, four affinity groups may be identified: medium (sdABP01/03), high (sdABP02/04/07), high-very high (sdABP05), and very high (sdABP06).

[3] = target: T1, full length human DPEP-1 displayed on …; assay: flow cytometry on human DPEP-1-expressing cells, monomeric VHH (Table 8 restating Table 5)
Description: as §1, §2

[4] = target: T2, recombinant human DPEP-1 ectodomain; assay: SPR, single-cycle kinetics, biotinylated hDPEP-1 ectodomain captured, VHH flowed; mean ± SD of triplicates
Description: (§3) The binding affinity of DPEP-1-specific VHHs was analyzed by surface plasmon resonance (SPR). Recombinant human DPEP-1 (hDPEP-1) ectodomain was chemically biotinylated using EZ-Link™ NHS-LC-LC-Biotin (Thermo Fisher, Cat #21343) following manufacturer instructions. Biotinylated recombinant hDPEP-1 ectodomain was then captured on CM5 sensorchip surfaces using Biotin CAPture reagent followed by flowing over surfaces VHHs at concentrations ranging from 0.625-10 nM (sdABP02), 2.5-40 nM (sdABP03/05/07), 6.25-100 nM (sdABP06) and 12.5-200 nM (sdABP01/04). Dark lines represent data points, light lines fit to the data. Data were generated in triplicates. Diagonal lines represent equilibrium dissociation constants, KDs. KD values (mean±SD) obtained in FIG. 2A are shown in Table 4. sdABP01 binding data gave poor fit to the 1:1 binding model. As a result, its KD could not be determined with certainty. A better fit was observed using the heterogeneous ligand binding model.

[5] = target: T2, recombinant human DPEP-1 ectodomain; assay: SPR single-cycle kinetics; biotinylated h-DPEP1 captured on the chip, VHH flowed over; 1:1 binding model, 25 C; one replicate of three [con't]
Description: (§4) Recombinant human DPEP-1 was biotinylated as described in Example 3 and captured on CM5 sensorchip surfaces using Biotin CAPture reagent followed by flowing over surfaces VHHs at concentrations ranging from 0.625-10 nM (sdABP02), 2.5-40 nM (sdABP03/05/07), 6.25-100 nM (sdABP06) and 12.5-200 nM (sdABP01/04). Dark lines represent data points, light lines fit to the data. Data were generated in triplicates and data for one replicate set are shown.
as §3

[6] = target: T2, recombinant human DPEP-1 ectodomain; assay: SPR single-cycle kinetics; biotinylated h-DPEP1 captured on the chip, VHH flowed over; 1:1 binding model, 25 C; one replicate of three
Description: as §4, §3

EC50 [2] [nM] | EC50 [3] [nM] | Kd [4] [nM] | Kd [5] [nM] | koff [5] [s⁻¹] | kon [5] [M⁻¹ s⁻¹] | Kd [6] [nM] | koff [6] [s⁻¹] | kon [6] [M⁻¹ s⁻¹] | Molecule | geometric mean fluorescence intensity (number above the histogram) [1]
 |  |  |  |  |  |  |  |  | Clostridium difficile toxin A-specific A20.1 VHH | 106
550 | 550 | 27 | 26.9 | 0.0605 | 2.25e+06 |  |  |  | sdABP03 (VHH with BAP and His6 tags) (VHH, biotin on the Biotinylation Acceptor Peptide in the flow cytometry and immunoprecipitation assays, Monomeric llama VHH with BAP and His6; also called sdAb03) VHH: EVQLVESGGGLVQPGGSLRLSCATSEFTLDYYAIGWFRQAPGKEREGVSCISSSGGTTNYADSVKGRFTISSDNAKNTVSLQMNSLRPEDTAVYYCAAARVSAYYLGNYGCLNAEYGYWGQGTQVTVSS | 
0.96 | 0.96 | 6.32 | 5.91 | 0.00103 | 175000 |  |  |  | sdABP06 (VHH with BAP and His6 tags) (VHH, biotin on the Biotinylation Acceptor Peptide in the flow cytometry and immunoprecipitation assays, Monomeric llama VHH with BAP and His6; also called sdAb06) VHH: EVQLVDSGGGLVQPGGSLRLSCAASGFTFSNYDMSWVRQGPGKGPEWVSIISYVGGLTRYSDSVKGRFTISRDNAKNTLYLQMNSLNTEDTALYYCARVKSMHPTSTTGEYDYRGRGTQVTVSS | 
5.3 | 5.3 | 10.6 |  |  |  | 12.8 | 0.0276 | 2.15e+06 | sdABP05 (VHH with BAP and His6 tags) (VHH, biotin on the Biotinylation Acceptor Peptide in the flow cytometry and immunoprecipitation assays, Monomeric llama VHH with BAP and His6; also called sdAb05) VHH: EVQLVESGGGLVQPGGSLRLSCAASGFTFSTYAMTWVRKAPGKGFEWISSIDSGGGVTLYADSVKGRFTISKDNAKNTLYLQMNNLKPDDTAVYYCVKNYGSTSLQSRGQGTQVTVSS | 
15 | 15 | 5.09 | 5.05 | 0.00835 | 1.65e+06 |  |  |  | sdABP07 (VHH with BAP and His6 tags) (VHH, biotin on the Biotinylation Acceptor Peptide in the flow cytometry and immunoprecipitation assays, Monomeric llama VHH with BAP and His6; also called sdAb07) VHH: EVQLVESGGGLVEYGGSLRLSCAASESTLDNYAIAWFRQAPGKEREVVSCVGKSGGRSDYADSVKGRFTISRDNAKNTVYLQMNSLKPEDTAVYSCAARRVWFGGCVLGTSQGQYDYWGQGTQVTVSS | 
